In paper PMC3268815 (Nature, 2011):

Key:
[1] = molecular target: T1, fibrinogen fragment D (human, UniProt P02671 130-216; P02675 164-491; P02679 114-432); assay: pull-down
T1 sequence 1: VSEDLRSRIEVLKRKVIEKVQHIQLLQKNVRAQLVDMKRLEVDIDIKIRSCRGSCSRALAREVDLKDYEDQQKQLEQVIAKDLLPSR
T1 sequence 2: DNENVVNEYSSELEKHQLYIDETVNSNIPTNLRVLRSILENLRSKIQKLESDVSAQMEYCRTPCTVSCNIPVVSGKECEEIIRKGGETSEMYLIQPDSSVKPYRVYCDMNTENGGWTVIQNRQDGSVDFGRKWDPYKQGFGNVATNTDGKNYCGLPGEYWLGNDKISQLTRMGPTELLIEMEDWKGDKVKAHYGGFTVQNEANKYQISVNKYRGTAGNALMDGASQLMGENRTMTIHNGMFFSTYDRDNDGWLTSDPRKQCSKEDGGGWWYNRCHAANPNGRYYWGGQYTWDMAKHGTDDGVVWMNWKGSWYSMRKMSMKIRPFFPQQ
T1 sequence 3: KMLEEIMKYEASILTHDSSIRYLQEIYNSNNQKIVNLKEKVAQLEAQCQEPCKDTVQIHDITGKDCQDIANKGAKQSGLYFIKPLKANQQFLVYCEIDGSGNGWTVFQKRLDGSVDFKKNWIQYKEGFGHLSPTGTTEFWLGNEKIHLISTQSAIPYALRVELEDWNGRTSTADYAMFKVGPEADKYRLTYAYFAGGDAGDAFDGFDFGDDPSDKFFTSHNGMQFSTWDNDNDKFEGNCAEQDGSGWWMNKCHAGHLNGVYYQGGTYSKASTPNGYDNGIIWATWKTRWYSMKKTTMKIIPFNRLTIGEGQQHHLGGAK

[2] = molecular target: the molecule itself; assay: crystal structure
[3] = molecular target: T1, fibrinogen fragment D; assay: crystal structure

B1: M1 B2C (residues 162-189 deleted and inserted after C-terminal residue 453) (natural protein, UniProt Q99XV0 42-453, looked up)
chain: NGDGNPREVIEDLAANNPAIQNIRLRYENKDLKARLENAMEVAGRDFKRAEELEKAKQALEDQRKDLETKLKELQQDYDLAKESTSWDRQRLEKELEEKKEALELAIDQASRDYHRATALEKELETITREQEINRNLLGNAKLELDQLSSEKEQLTIEKAKLEEEKQISDASRQSLRRDLDASREAKKQVEKDLANLTAELDKVKEDKQISDASRQGLRRDLDASREAKKQVEKDLANLTAELDKVKEEKQISDASRQGLRRDLDASREAKKQVEKALEEANSKLAALEKLNKELEESKKLTEKEKAELQAKLEAEAKALKEQLAKQAEELAKLRAGKASDSQTPDTKPGNKAVPGKGQAPQAGTKPNQNKAPMKETKRQLPSTEKELEEKKKALELAIDQASQDYNRANVL
Q: Does B1 bind [1]?
A: binds

B2: M1^BC1 (M1 fragment with B-repeats, S-region and first C-repeat) (domain or fragment, UniProt Q99XV0 128-263, looked up)
chain: WDRQRLEKELEEKKEALELAIDQASRDYHRATALEKELEEKKKALELAIDQASQDYNRANVLEKELETITREQEINRNLLGNAKLELDQLSSEKEQLTIEKAKLEEEKQISDASRQSLRRDLDASREAKKQVEKDL
Q: Which “stoichiometry N” value [2] does the source give for B2 here?
A: 2

B3: selenomethionine-substituted M1^BC1(I148M) (domain or fragment, UniProt Q99XV0 128-263, looked up)
chain: WDRQRLEKELEEKKEALELAMDQASRDYHRATALEKELEEKKKALELAIDQASQDYNRANVLEKELETITREQEINRNLLGNAKLELDQLSSEKEQLTIEKAKLEEEKQISDASRQSLRRDLDASREAKKQVEKDL
modifications: selenomethionine-substituted
Q: Does B3 bind [3]?
A: binds
